Test results from patent US20190263932A1 (Eli Lilly, published 2019).
Residue numbers refer to the chain shown, from its start.

T1: Cynomolgus monkey TrkA Extracellular Domain (59-434) (cynomolgus monkey, UniProt P04629 35-414 (human entry))
T1 construct: SPR analyte
T1 chain: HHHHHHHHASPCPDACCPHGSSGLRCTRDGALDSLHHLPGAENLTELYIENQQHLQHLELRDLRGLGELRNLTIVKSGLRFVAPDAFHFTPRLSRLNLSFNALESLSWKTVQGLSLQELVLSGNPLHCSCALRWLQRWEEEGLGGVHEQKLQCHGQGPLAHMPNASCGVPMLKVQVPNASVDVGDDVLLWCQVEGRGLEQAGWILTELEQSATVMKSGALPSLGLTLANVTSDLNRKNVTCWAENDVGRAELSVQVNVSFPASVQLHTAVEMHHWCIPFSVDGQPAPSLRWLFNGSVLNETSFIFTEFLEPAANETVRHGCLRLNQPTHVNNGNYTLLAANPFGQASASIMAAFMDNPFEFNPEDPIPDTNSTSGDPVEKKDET

T2: Rabbit TrkA Extracellular Domain (33-414) (rabbit)
T2 construct: SPR analyte; not shown: C-terminal polyhistidine tag (unknown length)
T2 chain: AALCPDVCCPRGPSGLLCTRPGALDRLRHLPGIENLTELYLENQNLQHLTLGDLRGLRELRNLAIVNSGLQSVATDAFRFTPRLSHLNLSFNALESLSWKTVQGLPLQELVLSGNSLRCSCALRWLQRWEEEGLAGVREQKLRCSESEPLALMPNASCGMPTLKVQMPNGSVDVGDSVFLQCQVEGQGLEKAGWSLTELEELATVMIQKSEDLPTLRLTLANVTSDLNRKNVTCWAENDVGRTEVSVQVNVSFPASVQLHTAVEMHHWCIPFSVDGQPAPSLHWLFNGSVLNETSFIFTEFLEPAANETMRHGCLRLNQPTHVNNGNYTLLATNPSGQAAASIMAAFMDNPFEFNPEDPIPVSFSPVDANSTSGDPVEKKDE

B1: mAb A (antibody, human IgG4 S228P, kappa, F234A L235A, V domains shown)
VH: EVQLVESGGGLVKPGGSLRLSCAASGFTFSGVSINWVRQAPGKGLEWVSSETTSSGTIYYADSVKGRFTISRDNAKNSLYLQMNSLRAEDTAVYYCARSYYYGMDVWGQGTTVTVSS
VL: DIVMTQTPLSSPVTLGQPASISCRSSQSLVHRNGNTYLSWLQQRPGQPPRLLIYKISNRFSGVPDRFSGSGAGTDFTLKISRVEAEDVGVYYCMQARQFPLTFGGGTKVEIKR
notes: Human IgG4PAA/Kappa
B2: mAb C (antibody, human IgG4 S228P, kappa, F234A L235A)
heavy: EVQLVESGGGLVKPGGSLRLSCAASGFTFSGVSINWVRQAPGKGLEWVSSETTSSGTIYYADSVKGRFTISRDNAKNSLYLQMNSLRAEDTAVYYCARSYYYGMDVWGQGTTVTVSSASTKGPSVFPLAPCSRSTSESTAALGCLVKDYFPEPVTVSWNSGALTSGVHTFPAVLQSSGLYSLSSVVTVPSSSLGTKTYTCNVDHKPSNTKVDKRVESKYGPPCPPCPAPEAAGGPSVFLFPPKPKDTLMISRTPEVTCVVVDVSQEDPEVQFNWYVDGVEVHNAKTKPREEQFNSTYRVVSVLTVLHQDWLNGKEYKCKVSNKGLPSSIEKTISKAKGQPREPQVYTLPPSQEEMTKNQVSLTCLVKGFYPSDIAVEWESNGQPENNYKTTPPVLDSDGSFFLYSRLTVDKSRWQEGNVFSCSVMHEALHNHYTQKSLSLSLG
light: DIVMTQTPLSSPVTLGQPASISCRSSQSLVHRQGNTYLSWLQQRPGQPPRLLIYKISNRFSGVPDRFSGSGAGTDFTLKISRVEAEDVGVYYCMQARQFPLTFGGGTKVEIKRTVAAPSVFIFPPSDEQLKSGTASVVCLLNNFYPREAKVQWKVDNALQSGNSQESVTEQDSKDSTYSLSSTLTLSKADYEKHKVYACEVTHQGLSSPVTKSFNRGEC
notes: Human IgG4PAA/Kappa
B3: mAb B (antibody, human IgG4 S228P, kappa, F234A L235A)
heavy: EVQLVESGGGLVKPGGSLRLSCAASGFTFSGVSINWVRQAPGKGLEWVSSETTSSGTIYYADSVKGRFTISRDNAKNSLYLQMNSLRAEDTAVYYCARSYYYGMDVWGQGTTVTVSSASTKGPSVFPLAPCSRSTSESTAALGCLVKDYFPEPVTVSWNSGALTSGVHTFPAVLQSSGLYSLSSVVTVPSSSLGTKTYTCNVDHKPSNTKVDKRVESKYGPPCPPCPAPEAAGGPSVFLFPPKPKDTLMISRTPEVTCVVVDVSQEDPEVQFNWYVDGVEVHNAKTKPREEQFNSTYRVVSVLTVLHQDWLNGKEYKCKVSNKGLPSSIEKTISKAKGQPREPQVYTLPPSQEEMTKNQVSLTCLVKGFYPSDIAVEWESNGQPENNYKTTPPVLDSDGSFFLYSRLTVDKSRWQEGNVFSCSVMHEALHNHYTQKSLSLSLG
light: B2 light with Q33A
notes: Human IgG4PAA/Kappa

Molecular target: T3, recombinant human TrkA protein (human, UniProt P04629-2 34-407, limits assumed)
T3 sequence (P04629 other isoform, or with tags, fused parts or gaps limits assumed): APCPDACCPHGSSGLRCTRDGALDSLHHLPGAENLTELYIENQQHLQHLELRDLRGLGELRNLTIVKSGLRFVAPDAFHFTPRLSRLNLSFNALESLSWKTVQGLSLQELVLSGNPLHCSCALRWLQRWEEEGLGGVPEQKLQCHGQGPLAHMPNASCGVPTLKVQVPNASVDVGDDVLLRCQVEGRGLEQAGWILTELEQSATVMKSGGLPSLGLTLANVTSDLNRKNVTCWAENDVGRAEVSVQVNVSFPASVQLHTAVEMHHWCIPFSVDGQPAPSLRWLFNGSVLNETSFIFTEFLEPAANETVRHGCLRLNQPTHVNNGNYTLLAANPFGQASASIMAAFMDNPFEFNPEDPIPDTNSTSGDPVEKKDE
Assay: NGF-blocking ELISA on coated human TrkA, 100 nM btNGF; mAb 20 nM

Row | Absorbance 450 nm | Binder
1 | 0.2 | B1
2 | 0.15 | B2
3 | 0.15 | B3

Molecular target: T3, recombinant human TrkA protein
Assay: NGF-blocking ELISA on coated human TrkA, 100 nM btNGF; mAb 0.02 nM
Protocol: (§1) Each row of a 96-well high-binding clear-bottom microtiter plate (Microlon, #655061) was coated overnight at 4° C. with 100 μL/well of recombinant human TrkA protein, diluted to 2 μg/mL in phosphate buffered saline, pH 7.2 (PBS). The next day, the coating solution was removed, and the plate was blocked with 150 μL of Casein-PBS (Thermo Scientific, #37528) for 1 hour at 25° C. with gentle shaking. The plate was then washed three times with PBS supplemented with 0.05% Tween20 (PBST). A two-fold dilution series of exemplified antibodies, along with IgG4 and IgG1 isotype control antibodies, was generated starting at 20 nM in Casein-PBS. 100 μL of the each dilution series sample was added to a well for 30 min at 37° C. with gentle shaking. The plate was then washed three times with PBST. […] The plate was then washed three times with PBST. A 1:3500 dilution of a 1 mg/mL stock solution of streptavidin-HRP (Thermo Scientific, #21130) in Casein-PBS was prepared and […] was added to each well for 20 min at 37° C. with gentle shaking. The plate was washed three times with PBST. […] The reaction was stopped by addition of 100 μL of 1M H₃PO₄ to each well. The absorbance at 450 nm (Abs450) was measured using a SpectraMax 340PC plate reader (Molecular Devices).

Row | Absorbance 450 nm | Binder
4 | 1.11 | B1
5 | 0.97 | B2
6 | 0.97 | B3

Molecular target: T3, recombinant human TrkA protein
Assay: NGF-blocking ELISA on coated human TrkA, 100 nM btNGF; mAb 0.31 (printed pM, two-fold series gives nM)
Protocol: as §1

Row | Absorbance 450 nm | Binder
7 | 0.73 | B1
8 | 0.56 | B2
9 | 0.55 | B3

Molecular target: TrkA on rat NEUROSCREEN-1 cells (pheochromocytoma PC12 subclone) (rat, UniProt P35739 33-799)
Sequence (P35739 33-799): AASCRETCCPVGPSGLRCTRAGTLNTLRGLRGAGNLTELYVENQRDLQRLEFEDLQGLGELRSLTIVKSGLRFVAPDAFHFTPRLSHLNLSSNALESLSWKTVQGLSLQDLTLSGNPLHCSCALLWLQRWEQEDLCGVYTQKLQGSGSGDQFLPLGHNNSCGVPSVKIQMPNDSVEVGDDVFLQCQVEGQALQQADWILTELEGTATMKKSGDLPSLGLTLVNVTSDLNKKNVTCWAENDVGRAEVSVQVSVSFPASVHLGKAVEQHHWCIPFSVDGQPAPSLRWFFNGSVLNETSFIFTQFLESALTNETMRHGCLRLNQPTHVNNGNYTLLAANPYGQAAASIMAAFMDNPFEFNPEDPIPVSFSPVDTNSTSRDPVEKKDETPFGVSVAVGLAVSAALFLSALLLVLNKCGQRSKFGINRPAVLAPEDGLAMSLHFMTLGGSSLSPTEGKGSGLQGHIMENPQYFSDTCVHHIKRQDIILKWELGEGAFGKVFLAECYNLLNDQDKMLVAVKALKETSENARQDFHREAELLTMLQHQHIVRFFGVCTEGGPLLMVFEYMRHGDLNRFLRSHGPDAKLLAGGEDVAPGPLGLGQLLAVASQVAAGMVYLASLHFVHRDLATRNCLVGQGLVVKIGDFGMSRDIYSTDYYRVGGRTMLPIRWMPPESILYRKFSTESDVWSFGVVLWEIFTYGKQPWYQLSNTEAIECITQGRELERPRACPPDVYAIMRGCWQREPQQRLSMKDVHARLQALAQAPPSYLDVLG
Assay: cell-based or functional assay

Row | % Max Stimulation of neurite outgrowth [%] | IC50, inhibition of NGF-induced neurite outgrowth [nM] | Binder
10 | 7 | 0.1 | B1
11 | 7 | 0.06 | B2
12 | 10 | 0.07 | B3

Molecular target: T3, recombinant human TrkA protein
Assay: NGF-blocking ELISA on coated human TrkA, 100 nM btNGF; mAb 2.5 nM
Protocol: as §1

Row | Absorbance 450 nm | Binder
13 | 0.21 | B1
14 | 0.15 | B2
15 | 0.16 | B3

Molecular target: T1, Cynomolgus monkey TrkA Extracellular …
Assay: SPR, mAb captured on Protein A chip, 37 C
Protocol: (§2) The binding kinetics and affinity of exemplified antibodies to human, cynomolgus monkey, rat, mouse, and rabbit TrkA are determined as described below using a surface plasmon resonance assay on a BIACORE™ 8K instrument (GE Healthcare). Two different isoforms of human TrkA (isoform 1 and isoform 2) are evaluated along with human TrkB and human TrkC. […] All FC2 on all eight channels are set to capture approximately 89 response units (RU) of antibody at a flow rate of 10 μL/min. The antibody sample is prepared at 1 μg/mL by dilution into the running buffer. […] Before the analysis cycle, the chip is regenerated with 3 injections of glycine (pH ˜1.5) at 100 μL/min for a contact time of 15 seconds on FC1 and FC2 in order to clean the surface of the chip.

Row | Kd [nM] | koff [s⁻¹] | kon [M⁻¹ s⁻¹] | Binder
16 | 3.6 | 0.00069 | 190000 | B1
17 | 6.6 | 0.0013 | 200000 | B2
18 | 6.9 | 0.0013 | 190000 | B3

Molecular target: T4, Human TrkA Extracellular Domain Isoform 1 (33-414) (human, UniProt P04629 33-414)
T4 construct: SPR analyte; also called Human TrkA Isoform 1
T4 sequence (P04629 other isoform, or with tags, fused parts or gaps): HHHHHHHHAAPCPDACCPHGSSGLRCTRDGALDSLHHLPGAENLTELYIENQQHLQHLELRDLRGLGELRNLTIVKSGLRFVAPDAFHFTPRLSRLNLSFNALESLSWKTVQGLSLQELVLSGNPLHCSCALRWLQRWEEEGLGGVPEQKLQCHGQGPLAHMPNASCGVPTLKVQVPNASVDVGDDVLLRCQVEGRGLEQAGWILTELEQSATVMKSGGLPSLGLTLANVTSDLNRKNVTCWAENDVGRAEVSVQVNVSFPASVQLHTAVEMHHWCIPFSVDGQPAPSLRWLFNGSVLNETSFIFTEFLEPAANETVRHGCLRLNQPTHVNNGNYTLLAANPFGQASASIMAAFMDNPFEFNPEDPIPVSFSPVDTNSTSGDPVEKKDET
Assay: SPR, mAb captured on Protein A chip, 37 C
Protocol: as §2

Row | Kd [nM] | koff [s⁻¹] | kon [M⁻¹ s⁻¹] | Binder
19 | 3.9 | 0.00069 | 180000 | B1
20 | 6.7 | 0.0013 | 200000 | B2
21 | 6.7 | 0.0013 | 190000 | B3

Molecular target: T2, Rabbit TrkA Extracellular Domain …
Assay: SPR, mAb captured on Protein A chip, 37 C
Protocol: as §2

Row | Kd [nM] | koff [s⁻¹] | kon [M⁻¹ s⁻¹] | Binder
22 | 2.9 | 0.00061 | 210000 | B1
23 | 4.7 | 0.0011 | 220000 | B2
24 | 5 | 0.0011 | 220000 | B3

Molecular target: T5, Human TrkA Extracellular Domain Isoform 2 (33-408) (human, UniProt P04629 33-414)
T5 construct: SPR analyte; also called Human TrkA Isoform 2
T5 sequence (P04629 other isoform, or with tags, fused parts or gaps): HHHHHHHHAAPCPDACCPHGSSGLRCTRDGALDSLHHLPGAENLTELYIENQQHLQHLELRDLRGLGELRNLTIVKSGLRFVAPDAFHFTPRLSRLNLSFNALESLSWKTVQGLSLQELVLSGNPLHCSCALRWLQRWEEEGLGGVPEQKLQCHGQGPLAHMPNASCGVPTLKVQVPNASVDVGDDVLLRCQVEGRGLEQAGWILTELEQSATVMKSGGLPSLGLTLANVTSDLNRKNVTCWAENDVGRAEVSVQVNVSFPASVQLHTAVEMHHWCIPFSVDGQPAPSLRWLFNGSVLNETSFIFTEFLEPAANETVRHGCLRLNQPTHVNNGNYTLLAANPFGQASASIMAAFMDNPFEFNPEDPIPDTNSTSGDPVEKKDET
Assay: SPR, mAb captured on Protein A chip, 37 C
Protocol: as §2

Row | Kd [nM] | koff [s⁻¹] | kon [M⁻¹ s⁻¹] | Binder
25 | 4.1 | 0.00072 | 180000 | B1
26 | 6.6 | 0.0013 | 200000 | B2
27 | 6.8 | 0.0013 | 190000 | B3

Molecular target: T6, Mouse TrkA Extracellular Domain (33-417 with 396-401 deletion) (mouse, UniProt Q3UFB7 34-417)
T6 construct: SPR analyte
T6 sequence (Q3UFB7 other isoform, or with tags, fused parts or gaps limits assumed): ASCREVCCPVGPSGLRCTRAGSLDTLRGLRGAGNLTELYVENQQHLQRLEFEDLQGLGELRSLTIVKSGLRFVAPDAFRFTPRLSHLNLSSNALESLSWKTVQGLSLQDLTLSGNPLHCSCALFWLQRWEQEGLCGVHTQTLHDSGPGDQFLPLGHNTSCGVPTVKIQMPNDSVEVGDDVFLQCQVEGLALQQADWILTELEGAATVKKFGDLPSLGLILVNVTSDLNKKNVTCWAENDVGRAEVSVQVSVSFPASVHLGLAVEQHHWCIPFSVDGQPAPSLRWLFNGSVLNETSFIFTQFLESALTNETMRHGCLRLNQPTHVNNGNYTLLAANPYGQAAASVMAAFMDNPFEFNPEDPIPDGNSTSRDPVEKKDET
Assay: SPR, mAb captured on Protein A chip, 37 C
Protocol: as §2

Row | Kd [nM] | koff [s⁻¹] | kon [M⁻¹ s⁻¹] | Binder
28 | 6.1 | 0.00069 | 110000 | B1
29 | 10.2 | 0.0012 | 120000 | B2
30 | 10.5 | 0.0012 | 120000 | B3

Molecular target: T7, Rat TrkA Extracellular Domain (33-411) (rat, UniProt P35739 33-417)
T7 construct: SPR analyte
T7 sequence (P35739 other isoform, or with tags, fused parts or gaps): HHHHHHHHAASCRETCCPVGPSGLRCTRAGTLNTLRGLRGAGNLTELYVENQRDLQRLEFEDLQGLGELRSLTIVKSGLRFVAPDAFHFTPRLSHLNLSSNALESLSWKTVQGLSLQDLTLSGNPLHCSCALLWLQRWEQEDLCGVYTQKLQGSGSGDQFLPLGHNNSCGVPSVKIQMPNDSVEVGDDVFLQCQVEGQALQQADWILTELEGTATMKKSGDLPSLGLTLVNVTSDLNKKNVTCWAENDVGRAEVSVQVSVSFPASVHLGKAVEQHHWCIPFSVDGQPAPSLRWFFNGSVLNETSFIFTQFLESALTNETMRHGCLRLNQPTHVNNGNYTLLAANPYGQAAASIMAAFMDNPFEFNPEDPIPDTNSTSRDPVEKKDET
Assay: SPR, mAb captured on Protein A chip, 37 C
Protocol: as §2

Row | Kd [nM] | koff [s⁻¹] | kon [M⁻¹ s⁻¹] | Binder
31 | 5.1 | 0.00069 | 140000 | B1
32 | 9 | 0.0012 | 130000 | B2
33 | 9.1 | 0.0012 | 130000 | B3
